# In article PMC11071394:
# Values joined by “and” are separate entries in the source; they are usually repeats but may differ in a detail not shown here. Identical values can stand only once.
# Target: Sg Enc, Family 2B encapsulin shell protein from Streptomyces griseus (expressed in S. coelicolor A3(2)) (Streptomyces griseus)
# Assay: cryo-EM structure
Substance,2-MIBS dimers per shell (dimers per shell),stoichiometry N
"Sg 2-methylisoborneol synthase (2-MIBS) from Streptomyces griseus, co-expressed with Sg Enc (enzyme)",3 and 4,
"Sg Enc, Family 2B encapsulin shell protein from Streptomyces griseus (expressed in S. coelicolor A3(2)) (natural protein)",,60 protomers
